Test [1] has as its target T1, BSA-conjugated human MS4A4A ECL2 peptide (amino acid residues 159-179) (human, conjugated to BSA (site not stated)).
T1 construct: also called MS4A4A-ECL2 BSA conjugated peptide; BSA-MS4A4A-ELC2 peptide
T1 peptide: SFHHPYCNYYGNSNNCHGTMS
Kind of test: ELISA, supernatant. The procedure:
(§1) Briefly, 96-well polystyrene plates were coated with 1-10 μg/ml of synthetic free or BSA-conjugated peptides in coating buffer (0.05M carbonate buffer, pH9.6, Millipore Sigma C3041) overnight at 4° C. Coated plates were then blocked with ELISA diluent (PBS+0.5% BSA+0.05% Tween20) for 1-hour, washed 3×300 μL in PBST (PBS+0.05% Tween20, Thermo Cat#28352), and then the antibodies were added to the plate ([…]). After 30 mins incubation (room temperature, with shaking), the plates were washed 3×300 μL in PBST. […] After a final set of washes (3×300 μL in PBST), 50 μL of TMB substrate (BioFx TMBW-1000-01) was added and the reaction was then quenched after 5-10 mins with 50 μL of stop solution (BioFx BSTP-1000-01). The quenched reaction wells were detected for absorbance at 650 nm with a BioTek Synergy Microplate Reader using GENS 2.04 software.
(In general: In an ELISA, binding on a coated surface is turned into a signal by an enzyme label.)

Test [2] concerns the target T2, cynomolgus (cyno) MS4A4A (cynomolgus).
T2 construct: also called cy4A; Cyno 4A
Kind of test: FACS, HEK293, supernatant. The procedure: (§2) Positive clones identified above were expanded and then rescreened for specificity against HEK293 cells overexpressing human MS4A4A or cyno MS4A4A and parental HEK293 cells. These experiments were performed using supernatants from hybridoma clones which had undergone further expansion after initial selection. Briefly, previously prepared, cryopreserved transiently-transfected cells were labeled with LIVE/DEAD Fixable Aqua Dead Cell Stain Kit (ThermoFisher Scientific L34957) on ice for 30 minutes. After a wash with PBS, 2×10⁵ cells were aliquoted per well in 96-well U-bottom plates and incubated with 50 μl of culture supernatant on ice for 30 minutes. […] Following this secondary incubation, the cells were again washed twice with ice-cold FACS buffer and resuspended in a final volume of 200 μl of FACS buffer. Analysis was performed on a FACS Canto system (BD Biosciences), with sort gates drawn to exclude dead (Aqua-positive) cells. Positive clones (fold change of 1.8 or greater) were carried forward for further testing.

Test [3] addresses human MS4A4A (human, UniProt Q96JQ5 1-239). The experiment in a line: FACS, HEK293, supernatant. On the procedure: as §2
In general terms: A flow cytometer gives signals particle by particle.

Test [4] addresses T3, human MS4A4A ECL1 peptide (amino acid residues 86-98) (human).
T3 construct: synthetic peptide
T3 peptide: CMASNTYGSNPIS
The experiment in a line: ELISA, hybridoma supernatant. The procedure:
as §1

Test [5] deals with T4, human MS4A6A ECL1 peptide (amino acid residues 68-85) (human).
T4 peptide: SASFSPNFTQVTSTLLNS
The experiment in a line: array SPR. On the procedure: (§3) Binding kinetic characterization of the anti-MS4A4A antibodies to MS4A4A ECL1 and ECL2 and to MS4A6A ECL1 and ECL2 peptides was performed by Carterra (South San Francisco, Calif.) using a proprietary array Surface Plasmon Resonance (SPR) instrument (MX-96) as follows. Antibodies were captured onto a CMD500D chip (Xantec # SPMX CMD500D) using the Continous Flow Microspotter (CFM). First, the chip was activated with 100 mM MES pH 5.5, 100 μL EDC (133 mM final), 100 μL of S-NHS (33.3 mM final), for 7 minutes. […] Anti-MS4A4A hydridoma supernatant or purified anti-MS4A4A antibodies were diluted in HBS-EP+ buffer (Teknova Cat # H8022) and then printed as duplicates with a 20 minute and a 5-minute print from the same sample solution.
(§4) These were then injected on the chip for five minutes, followed by a seven-minute dissociation period at 8 uL per second in a non-regenerative kinetic series. Duplicate measurements for each anti-MS4A4A antibody were taken to ensure reproducibility. Association rates (Kon) and dissociation rates (Koff) were calculated using a single one-to-one Langmuir binding model. The equilibrium dissociation constant (KD) was calculated as the ration of Koff/Kon.

In test [6] the target is T5, human MS4A6A ECL2 peptide (amino acid residues 138-185) (human).
T5 peptide: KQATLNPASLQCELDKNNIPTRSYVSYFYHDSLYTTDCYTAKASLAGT
Kind of test: array SPR. On the procedure:
as §3, §4

Substitutions are numbered along the chain they refer to.

B1: anti-MS4A4A antibody 4A-4 (antibody, V domains shown)
VH: EIQLQQTGPDLVKPGTSVKISCKASGYSFTDYVLVWVKQSHGKSLEWIGNINPYYGNSDYNLKFEGKARLTVDRSSSTAYMQLNSLTSEDSAVYYCARYGLYAMDFWGQGTSVTVSS
VL: DVLMTQTPLSLPVSLGDQASISCRSSQTIVHSNGNSYLEWYLQKPGQSPKLLIYKVSNRFSGVPDRFSGSGSGTVFTLKISRVEAEDLGVYFCFQSSHVPLTFGVGTKLELK
notes: murine hybridoma antibody
Regarding B1, the binding result was “binds” in test [1], “no binding” in test [4], “no binding (tested: 2000 nM)” in test [5] and “no binding (tested: 2000 nM)” in test [6]. Further, the “Cyno 4A:parental cell ratio” value in test [2] was found to be 2 ratio. The “Human 4A:parental cell ratio” value in test [3] was determined as 4.78 ratio.

B2: anti-MS4A4A antibody 4A-15 (antibody, V domains shown)
VH: EIQLQQTGPDLVKPGASVKISCKASGYSFTDYVILWVKQSHGKTLEWIGHINPYYANSDYNVNFRGKATLTVDKSSSTAHMQLNSLTSEDSAVYYCVRYGSGMDYWGQGTSVTVSS
VL: B1 VL with T28S, N33D, S36T, V75D, F92Y, S96G, V99F, V105A
notes: murine hybridoma antibody
As for B2, the binding result in test [1] is “binds”; in test [4], “no binding”; in test [5], “no binding (tested: 2000 nM)”; in test [6], “no binding (tested: 2000 nM)”. Further, the “Cyno 4A:parental cell ratio” value in test [2] stood at 4.67 ratio. In test [3], the “Human 4A:parental cell ratio” value is 8.13 ratio.

B3: anti-MS4A4A antibody 4A-8 (antibody, V domains shown)
VH: EVKLVESGGGLVQPGGSLKLSCATSGFTFSDYYMYWVRQTPEKRLEWVAYINNGGGSTYYPDTVKGRFTISRDNAKNTLYLQMSRLKSEDTAMYYCARQGNLIYYSGSSLFAYWGQGTMVTVSS
VL: B1 VL with T28S, G34R, S36T, L42V, V75D, F92Y, S96G, L101W, V105G, L111I
notes: murine hybridoma antibody
Consider B3, for which the binding result in test [1] is reported as “binds”; in test [4] it was “no binding”; in test [5], “no binding (tested: 2000 nM)”; in test [6], “no binding (tested: 2000 nM)”. Also, the “Cyno 4A:parental cell ratio” value in test [2] was determined as 3.3 ratio. Besides, in test [3], the “Human 4A:parental cell ratio” value worked out at 5.7 ratio.

B4: anti-MS4A4A antibody 4A-7 (antibody, V domains shown)
VH: EIQLQQTGPELVKPGASVKISCKASGYSFTDYVMIWVKQSHGKSLEWIGNINPYYGSTSYNLKFKGKATLTVDKSSSTAYMQLKSLTSEDSAVYYCARYGYDALDNWGQGTSVTVSS
VL: B1 VL with M4L, T28S, S36T, E39D, Y41S, K55R, V75D, F92Y, S96G, V105A
notes: murine hybridoma antibody
Take B4: the binding result is on record as “binds” in test [1], “no binding” in test [4], “no binding (tested: 2000 nM)” in test [5] and “no binding (tested: 2000 nM)” in test [6]. Moreover, the “Cyno 4A:parental cell ratio” value in test [2] is 3.98 ratio. In addition, the “Human 4A:parental cell ratio” value in test [3] came out at 7.97 ratio.

B5: anti-MS4A4A antibody 4A-3 (antibody, V domains shown)
VH: QIQLVQSGPELKTPGETVKISCKSSGYTFTKYGMNWVKQAPGKGLKWMAWINTYTAEPTYGDDFKGRFALSLETSANTAYLQINNLKNEDTATYFCARSAELVRHYYALDYWGQGTSVTVSS
VL: DVLMTQTPLSLPVSLGDQASISCRSSQSLVHSNGNIYLEWFLQKPGQSLKILIYKVSNRFSGVPDRFSGSGSGTDFTLKISRVEADDLGVYYCSQGSHVPPTFGAGTKLELR
notes: murine hybridoma antibody
Consider B5, for which the binding result in test [1] is given as “binds”; in test [4], “no binding”; in test [5], “no binding (tested: 2000 nM)”; in test [6], “no binding (tested: 2000 nM)”. Also, the “Cyno 4A:parental cell ratio” value in test [2] is 2.58 ratio. In addition, in test [3], the “Human 4A:parental cell ratio” value was determined as 7.31 ratio.

B6: anti-MS4A4A antibody 4A-20 (antibody, V domains shown)
VH: EVQLQQSGPELVKPGASVKIPCKASGYTFTDYNMDWVKQSHGKSLDWIGDINPNNGYTIYNQKFKGKATLTVDKSSSTAYMELRRLTSEDTAVYYCARSTGPYFDYWGQGTTLTVSS
VL: DIQMTQSPASLSASVGETVTITCRASENIYSYLAWYQQKQGKSPQFLVYNGKTLAEGVPSRFSGCGSGTQFSLKINSLQPEDFGSYYCQHHYGIPRTFGGGTKLEIK
notes: murine hybridoma antibody
With B6, the binding result is recorded as “binds” in test [1], “no binding” in test [4], “no binding (tested: 2000 nM)” in test [5] and “no binding (tested: 2000 nM)” in test [6].

B7: anti-MS4A4A antibody 4A-9 (antibody, V domains shown)
VH: DVQLQESGPGLVKPSQSLSLTCSVTGYSITSGYYWNWIRQFPGNKLEWMGYISYDGNNKYNPSLKNRISITRDTSKNQFFLKLNSVTTEDTATYYCANRDYWGQGTTLTVSS
VL: DVLMTQTPLSLPVSLGDQASISCRSSQNIVHSNGITYLEWFLQKPGQSPTLLIYKISNRFSGVPDRFSGSGSGTDFTLKISRVEAEDLGVYYCFQGSHVPYTFGGGTKLDIK
notes: murine hybridoma antibody
B7: the binding result is on record as “binds” in test [1], “no binding” in test [4], “no binding (tested: 2000 nM)” in test [5] and “no binding (tested: 2000 nM)” in test [6]. Further, the “Cyno 4A:parental cell ratio” value in test [2] was found to be 3.46 ratio. Besides, the “Human 4A:parental cell ratio” value in test [3] was found to be 8.2 ratio.

B8: anti-MS4A4A antibody 4A-11 (antibody, V domains shown)
VH: EVKLEESGGGLVQPGGSMKLSCAASGFTFSDAWMDWVRQSPEKGLEWVAEIRSKTDNHATYFAESVKGRFTISRDDSKSSVYLQMNSLRAGDTGIYYCYGSTFASWGQGTLVTVSS
VL: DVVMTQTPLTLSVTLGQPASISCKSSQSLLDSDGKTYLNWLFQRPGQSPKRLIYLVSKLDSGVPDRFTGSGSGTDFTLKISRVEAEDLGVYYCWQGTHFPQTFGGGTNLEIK
notes: murine hybridoma antibody
On to B8, for which the binding result in test [1] is given as “binds”; in test [4], “no binding”; in test [5], “no binding (tested: 2000 nM)”; in test [6], “no binding (tested: 2000 nM)”. For the same molecule, the “Cyno 4A:parental cell ratio” value in test [2] amounted to 2.11 ratio. In addition, the “Human 4A:parental cell ratio” value in test [3] is 9.12 ratio.

B9: anti-MS4A4A antibody 4A-10 (antibody, V domains shown)
VH: EVKLEESGGGLVQPGGSMKLSCAASGFTFSDAWMDWVRQSPEKGLEWVAEIRSKANDHATYYAESVKGRFTISRDDSKSSVYLQMNSLRAEDTGIYYCSVDYYGFFWGQGTLVTVSA
VL: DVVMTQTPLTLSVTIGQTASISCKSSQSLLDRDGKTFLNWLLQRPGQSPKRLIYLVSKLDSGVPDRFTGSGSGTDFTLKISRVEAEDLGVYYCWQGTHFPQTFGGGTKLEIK
notes: murine hybridoma antibody
Take B9: the “Cyno 4A:parental cell ratio” value in test [2] came out at 2.33 ratio. Besides, the “Human 4A:parental cell ratio” value in test [3] turned out to be 6.55 ratio. Also, the binding result in test [4] is on record as “no binding”; in test [5], “no binding (tested: 2000 nM)”; in test [6], “no binding (tested: 2000 nM)”.

B10: anti-MS4A4A antibody 4A-13 (antibody, V domains shown)
VH: B9 VH
VL: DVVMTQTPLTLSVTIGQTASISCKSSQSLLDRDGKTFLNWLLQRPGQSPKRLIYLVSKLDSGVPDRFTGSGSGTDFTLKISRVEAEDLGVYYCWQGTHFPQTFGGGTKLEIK
notes: murine hybridoma antibody; same VH and VL entries as 4A-10
As to B10, in test [2], the “Cyno 4A:parental cell ratio” value worked out at 9.94 ratio. The “Human 4A:parental cell ratio” value in test [3] is 43.8 ratio. Also, the binding result in test [4] was “no binding”; in test [5] it was “no binding (tested: 2000 nM)”; in test [6] it was “no binding (tested: 2000 nM)”.

B11: anti-MS4A4A antibody 4A-16 (antibody, V domains shown)
VH: B9 VH with L112M
VL: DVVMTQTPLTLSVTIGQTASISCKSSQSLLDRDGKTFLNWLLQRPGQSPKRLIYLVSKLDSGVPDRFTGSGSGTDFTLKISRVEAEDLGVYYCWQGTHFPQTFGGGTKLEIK
notes: murine hybridoma antibody
As for B11, the binding result in test [1] is reported as “binds”; in test [4], “no binding”; in test [5], “no binding (tested: 2000 nM)”; in test [6], “no binding (tested: 2000 nM)”. Besides, the “Cyno 4A:parental cell ratio” value in test [2] was 2.65 ratio. For the same molecule, the “Human 4A:parental cell ratio” value in test [3] stood at 5.93 ratio.

(Values after US20230126400A1 (Alector, published 2023).)
